Measured values as given in patent US6084072A, “Purified lectin and methods of use” (The Regents of the University of Michigan, priority 1993, dated 2000).
Several values for one entry are separate records, joined by “and”; a condition that tells them apart may be missing. Equal values may be shown once.

Key:
amaranthin = amaranthin (Amaranthus caudatus, UniProt Q71QF2); test: Precipitation of amaranthin by glycoproteins and glycoconjugates, native or glycosidase treated; assay type: binding; details: untreated glycoprotein or glycoconjugate; 80 μg amaranthin
Sequence of amaranthin (Q71QF2 entry or part of it): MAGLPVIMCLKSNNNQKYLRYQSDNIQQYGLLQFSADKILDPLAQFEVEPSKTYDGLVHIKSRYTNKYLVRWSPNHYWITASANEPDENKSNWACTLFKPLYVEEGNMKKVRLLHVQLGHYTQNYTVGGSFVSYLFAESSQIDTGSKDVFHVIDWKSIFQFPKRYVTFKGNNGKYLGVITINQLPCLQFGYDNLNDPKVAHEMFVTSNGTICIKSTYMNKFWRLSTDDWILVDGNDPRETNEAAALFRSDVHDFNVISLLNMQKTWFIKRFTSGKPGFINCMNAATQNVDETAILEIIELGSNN
Procedure: Glycosidase digestions, and in particular exo-β-galactosidase digestions were carried out for 9 hours at 37° C. in 0.1 M sodium citrate, pH 4.3 using 0.1 unit of enzyme/μmol of terminal galactosyl group. Endo-α-N-acetylgalactosaminidase treatment of asialo-ovine submaxillary mucin was done as described in Sadler, J. E., Rearick, J. L., Paulson, J. C., and Hill, R. L. (1979). GSC Exo-α-N-acetylgalactosaminidase digestion of asialo-ovine submaxillary mucin was carried out according to the recommendations of Genzyme of Boston, Mass. Glycoproteins were analyzed for carbohydrate composition, before and after glycosidase treatment, as described.
Precipitation assays were conducted in 1.5 ml centrifuge tubes by the method of So and Goldstein. Indicated amounts of glycoprotein were added to 80 μg of amaranthin, and the total volume was adjusted to 250 μl with phosphate buffered saline. The tubes were incubated at 37° C. and then kept at 4° C. for 2 days. The precipitates were centrifuged, washed with cold Phosphate buffered saline, dissolved in 0.05 N NaOH and analyzed for protein by the method of Lowery et al. using bovine serum albumin as the standard. […] Inhibition was determined relative to the amount of precipitate formed in the control with no sugar added. […]

colonic adenocarcinoma = assay type: binding, human; details: cancer specimens
[1] = test system: well differentiated colonic adenocarcinoma sections; test: Inhibition of lectin binding with hapten sugars on tissue sections; design: species or system human; key to Labeling score: 4^+: Maximum labeling of the brown reaction product; 0: No staining of the slide compared to control sections; 1^+: trace or weak staining definitely not seen on control slides; 2+3^+: stronger staining, but definitely less than maximal
Procedure: Four micron paraffin embedded tissue sections attached to glass slides were deparaffinized by serial incubations in xylene (twice), absolute ethanol (thrice), 95% ethanol, 70% ethanol, water and finally equilibrated in phosphate buffered saline (PBS), pH 7.0, containing 0.1% bovine serum albumin (BSA) commercially available from Sigma Corp of St. Louis, Mo. The slides were blotted dry adjacent to the tissue sections, and biotinylated lectin was added at a concentration of 10 μg/ml (for ACA) and 20 μg/ml (for PNA) in a quantity sufficient to completely cover the hydrated tissue (100-2001 μl). The lectin was rinsed off after a 30 minute incubation by eight 2-second dips into phosphate buffered saline. The slides were again blotted, and the tissue covered with Streptavidin-horseradish peroxidase (HRP) obtained from Zymed Laboratories, San Francisco, Calif. at a concentration of 10 μg/ml for 30 minutes. The slides were rinsed as mentioned above, and the pigmented reaction product developed by the addition of a freshly prepared chromogen reagent solution prepared within two hours of use as follows.
3,3'-diaminobenzidine was aliqotted at 5 mg/mL in 0.01 M (Tris) tris hydroxy methyl amino methane saline, pH 7.5 and frozen at -70° C. until use. For use, the aliquot was thawed, diluted 1:10 in 0.01 M (Tris) tris hydroxy methyl amino methane saline pH 7.5, and 3.3 μL of 30% H2 O2 were added to each 5 ml. This solution was allowed to stand for 10 min, and 100-200 μl was applied to the tissue sections that had been incubated earlier with biotinylated lectin and Streptavidin-HRP. After 10 min, the slides were rinsed with albumin-free phosphate buffered saline. The tissues were briefly counterstained for 50 seconds with Gill's #3 hematoxylin bovine serum albumin, commercially available from Sigma Corp. of St. Louis, Mo., rinsed with water, and serially dehydrated using graded alcohols and xylene, and embedded in Permount, a trademarked, commercially available product of Allied-Fischer Scientific of Livonia, Mich.
The specificity of lectin binding was evaluated by preincubating the biotinylated lectin with inhibitory hapten sugar for 1-2 hours prior to its application to the tissue. In each instance, the reagents were prepared so that the final concentration of lectin on the slide was either 10 or 20 μg/ml and the hapten sugar was as indicated in the results. Galactose, lactose, GalNAc, and galactose-β1-3N-acetylgalactosamine-α-O-benzyl (T-antigen-α-O-benzyl) were also obtained from Sigma Corp.
The stained sections were examined with a light microscope using a 25× and 40× objective lenses and 10× eyepiece. Evaluation of lectin binding required the use of several approaches. First, the binding specificity was confirmed by coincubation of lectin with hapten sugars known to bind the lectin maximally. Maximum labeling of the brown reaction product was arbitrarily assigned a score 4^+. See Boland, C. R., Bresalier, R. S., and Roberts, J. A. "Assay of lectin binding sites in colonic cancer-associated mucins: comparison of fluorescence microscopy with a quantitative chromatographic technique." J. Histochem. Cytochem., 36: 1329-1334, 1988. No staining of the slide compared to control sections (i.e., in which lectin was omitted from the staining procedure) was assigned a score of 0. Intermediate scores of 1^+ (trace or weak staining definitely not seen on control slides) and 2+3^+ (stronger staining, but definitely less than maximal) were assigned. […] See Boland. This method was used to confirm the binding specificity to known "positive" tissues and to evaluate changes in lectin binding after neuraminidase treatment.
Specimens of well differentiated colonic cancers were incubated with biotinylated lectins. Working concentrations on the slide were 10 μg/ml for ACA and 20 μg/ml for PNA. The hapten sugars galactose (Gal), N-acetylgalactosamine (GalNAc), and Galβ1,3GalNAc-α-O-benzyl (T-antigen) were used to inhibit lectin binding to the tissues. […]

HNPCC tissues = test: Lectin histochemistry, HNPCC rectal biopsies; assay type: binding, human; details: biotinylated ACA 10 μg/mL or PNA 20 μg/mL
Source text: Rectal biopsies were obtained from individuals who were first degree relatives of patients with hereditary nonpolyposis colorectal cancer (HNPCC) as identified by H. T. Lynch, M.D. These patients were the siblings or offspring of index patients who fit the criteria for Lynch Syndrome I or II. See Drzeniek, Z., and Usowska, E. (1979) Arch. Immunol Ther. Exp. 27, 253-262. However, since there is no definitive genetic or phenotypic marker for this familial syndrome, it is not possible to be certain that these patients represent a single homogenous genetic abnormality. The biopsies were fixed in formalin, and embedded in paraffin for tissue sectioning.
(§1) Four micron paraffin embedded tissue sections attached to glass slides were deparaffinized by serial incubations in xylene (twice), absolute ethanol (thrice), 95% ethanol, 70% ethanol, water and finally equilibrated in phosphate buffered saline (PBS), pH 7.0, containing 0.1% bovine serum albumin (BSA) commercially available from Sigma Corp of St. Louis, Mo. The slides were blotted dry adjacent to the tissue sections, and biotinylated lectin was added at a concentration of 10 μg/ml (for ACA) and 20 μg/ml (for PNA) in a quantity sufficient to completely cover the hydrated tissue (100-2001 μl). The lectin was rinsed off after a 30 minute incubation by eight 2-second dips into phosphate buffered saline. […]

FAP colonic tissue = test: Lectin histochemistry, familial adenomatous polyposis (FAP) colonic tissue; assay type: binding, human; details: biotinylated ACA 10 μg/mL or PNA 20 μg/mL
Source text: Full thickness specimens of colonic tissue were obtained from colectomy specimens for familial adenomatous polyposis at Johns Hopkins Hospital, fixed in formalin, and embedded in paraffin for tissue sectioning. The tissue specimens contained normal-appearing flat mucosa familial adenomatous polyposis, or FAP-normal, as well as a polypoid, adenomatious tissue familial adenomatous polyposis, or FAP-abnormal.
as §1
Therefore, each individual crypt of Lieberkuhn was given a score from 0-4^+, and the labeling was expressed as a "weighted average", or, the sum of scores from 100 crypts, which could range from 0 (all crypts not labeled) to 400 (all 100 crypts maximally labeled). […]

[2] = test system: normal colonic epithelium; assay type: binding, human
[3] = test system: human red blood cells (A, B, and O); details: see Lotan; cited from earlier work

B1: asialoglycophorin: desialylated glycophorin (protein, UniProt P02724 20-150, looked up)
Glycophorin-A: LSTTEVAMHTSTSSSVTKSYISSQTNDTHKRDTYAATPRAHEVSEISVRTVYPPEEETGERVQLAHHFSEPEITLIIFGVMAGVIGTILLISYGIRRLIKKSPSDVKPLPSPDTDVPLSSVEIENPETSDQ
modifications: desialylated
notes: desialylated glycophorin
precipitation of amaranthin, in words (amaranthin): most active precipitating agent

B2: glycophorin: native glycophorin, major component of red blood cell membranes (protein, UniProt P02724 20-150, looked up)
Glycophorin-A: B1 Glycophorin-A
precipitation of amaranthin, in words (amaranthin): small amount of precipitate

B3: PNA: peanut (Arachis hypogaea) agglutinin, T-antigen binding lectin (protein, UniProt P02872 24-273, looked up)
Galactose-binding lectin: AETVSFNFNSFSEGNPAINFQGDVTVLSNGNIQLTNLNKVNSVGRVLYAMPVRIWSSATGNVASFLTSFSFEMKDIKDYDPADGIIFFIAPEDTQIPAGSIGGGTLGVSDTKGAGHFVGVEFDTYSNSEYNDPPTDHVGIDVNSVDSVKTVPWNSVSGAVVKVTVIYDSSTKTLSVAVTNDNGDITTIAQVVDLKAKLPERVKFGFSASGSLGGRQIHLIRSWSFTSTLITTTRRSIDNNEKKIMNMASA
Effect of Newcastle disease virus neuraminidase on labeling (colonic adenocarcinoma): much less effect
Effect of V. Cholerae neuraminidase on labeling (colonic adenocarcinoma): greatly enhanced
GalNAc concentration that inhibited labeling [1]: ≥ 100 mM
T-antigen concentration that inhibited labeling [1]: ≥ 100 µM
galactose concentration that inhibited labeling [1]: ≥ 10 mM
lactose concentration that inhibited labeling [1]: ≥ 10 mM
Labeling score ([1]; Gal 2.5 mM): Trace
Labeling score ([1]; Gal 10 mM): 0
Labeling score ([1]; Gal 20 mM): 0
Labeling score ([1]; Gal 100 mM): 0
Labeling score ([1]; Gal 400 mM): 0
Labeling score ([1]; GalNAc 100 mM): 0
Labeling score ([1]; GalNAc 250 mM): 0
Labeling score ([1]; Lactose 200 mM): 0
Labeling score ([1]; Lactose 400 mM): 0
Labeling score ([1]; T-antigen 100 μM): 0
Labeling score ([1]; T-antigen 200 μM): 0
Labeling score ([1]; T-antigen 400 μM): 0
Staining (global score 0-3+) (HNPCC tissues): rarely binds and 0 and 1^+
Staining (global score 0-3+) (FAP colonic tissue): does not bind and 0
Effect of neuraminidase treatment on labeling [2]: did not produce an increase
Labeling of normal colon in the tissue survey [2]: No labeling
Staining (global score 0-3+) ([2]; biotinylated ACA 10 μg/mL or PNA 20 μg/mL): does not bind and 0
agglutination of native A, B, or O red blood cells, in words [3]: does not agglutinate
